Results on 5 molecules are retold here after patent publication US20160060307A1 (KYUNGPOOK NATIONAL UNIVERSITY INDUSTRY ACADEMIC COOPERATION …, published 2016).

Substitutions are numbered along the chain they refer to.

The target of assay [1] is T1, IL-4 receptor protein immobilised on carboxymethyl dextran chip (SPR) (Homo sapiens (Human), UniProt P24394 26-232).
T1 construct: Soluble protein coupled to the chip by EDC/NHS
T1 sequence: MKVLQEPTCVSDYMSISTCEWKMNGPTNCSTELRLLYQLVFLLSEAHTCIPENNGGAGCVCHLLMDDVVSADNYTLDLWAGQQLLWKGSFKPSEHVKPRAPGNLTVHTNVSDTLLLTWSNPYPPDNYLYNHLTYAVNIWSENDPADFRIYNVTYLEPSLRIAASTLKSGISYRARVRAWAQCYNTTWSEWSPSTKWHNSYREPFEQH
The assay can be described thus: SPR, IL-4 receptor immobilised. As for the experimental part:
(§1) Here, the right channel was used as a reference channel. In the two channels, left channel and right channel, 1M ethanolamine (pH 8.5) solution was allowed to flow over the unreacted surface for 7 min for blocking, so as to reduce non-specific adsorption thereof. All test procedures were conducted at a temperature of 25° C. and the flow rate was 25 ul/min.

The target in assay [2] is T1, IL-4 receptor protein immobilised on …. The assay can be described thus: SPR, IL-4 receptor immobilised, equilibrium fit. The protocol: as §1
The buffer (20 mM Tris-HCl pH 8.0, 150 mM NaCl, 180 mM Histidine, 62.5 ug/ml BSA, 0.005% Tween 20) was used through filtering and degassing. […] For regeneration, 2 M NaCl was allowed to flow over for 1 h to wash the proteins remaining without dissociation.
In the binding graph, the RU value expressing the amount of bound protein was measured by subtracting the blank (buffer) value and reference channel (right channel) value, using Scrubber software. The KD value was obtained from the binding RU (Req) values measured at the respective concentrations using KaleidaGraph software.

B1: FTL-AP1_AP1: fusion polypeptide in which AP1S was fused to N-terminal of FTL_GG-AP1S (designed binder)
chain: MRKRLDRNGGGSGMSSQIRQNYSTDVEAAVNSLVNLYLQASYTYLSLGFYFDRDDVALEGVSHFFRELAEEKREGYERLLKMQNQRGGRALFQDIKKPAEDEWGKTPDAMKAAMALEKKLNQALLDLHALGSARTDPHLCDFLETHFLDEEVKLIKKMGDHLTNLHRGSRKRLDRNGGPEAGLGEYLFERLTLKHD
modifications: One monomer is given; it assembles into a 24-mer ferritin cage.
notes: Expressed from pET28a(+) via NdeI/XhoI and purified on Ni-NTA (His tag); also called ferritin having two inserted AP1 peptides; not shown: His tag from the pET28a(+) vector (Ni-NTA purification)
For B1, in assay [1], the Kd worked out at 0.0458 nM, the “fold enhancement of binding affinity against FTL-AP1” value came to 10 times, the off-rate (koff) turned out to be 3.8e-05 s⁻¹ and the kon came to 826000 M⁻¹ s⁻¹.

B2: FTL-GG-AP1L: ferritin having AP1L inserted in GG cassette (human ferritin light chain, fourth loop) (designed binder)
chain: MSSQIRQNYSTDVEAAVNSLVNLYLQASYTYLSLGFYFDRDDVALEGVSHFFRELAEEKREGYERLLKMQNQRGGRALFQDIKKPAEDEWGKTPDAMKAAMALEKKLNQALLDLHALGSARTDPHLCDFLETHFLDEEVKLIKKMGDHLTNLHRGSCRKRLDRNCGGPEAGLGEYLFERLTLKHD
modifications: One monomer is given; it assembles into a 24-mer ferritin cage.
notes: pET28a(+) expression with Ni-NTA purification (His tag); Cage-forming; also called 157cysAP1-PBNC; not shown: His tag from the pET28a(+) vector (Ni-NTA purification, anti-His probe)
The molecule B2 returned an equilibrium dissociation constant (Kd) in assay [2] of 25.9 nM. This lies in the double-digit nanomolar range.

B3: FTL-GP-AP1L: ferritin having AP1L inserted in GP cassette (human ferritin light chain, fourth loop) (designed binder)
chain: MSSQIRQNYSTDVEAAVNSLVNLYLQASYTYLSLGFYFDRDDVALEGVSHFFRELAEEKREGYERLLKMQNQRGGRALFQDIKKPAEDEWGKTPDAMKAAMALEKKLNQALLDLHALGSARTDPHLCDFLETHFLDEEVKLIKKMGDHLTNLHRLGSCRKRLDRNCGPEAGLGEYLFERLTLKHD
modifications: One monomer is given; it assembles into a 24-mer ferritin cage.
notes: pET28a(+) expression with Ni-NTA purification (His tag); Cage-forming; not shown: His tag from the pET28a(+) vector (Ni-NTA purification, anti-His probe)
As to B3, binding in assay [2] was put at a Kd of 9.9 nM. This Kd lies about 2.6-fold lower than the previous one.

B4: FTL-GG-AP1S: ferritin having AP1S inserted in GG cassette (human ferritin light chain, fourth loop) (designed binder)
chain: MSSQIRQNYSTDVEAAVNSLVNLYLQASYTYLSLGFYFDRDDVALEGVSHFFRELAEEKREGYERLLKMQNQRGGRALFQDIKKPAEDEWGKTPDAMKAAMALEKKLNQALLDLHALGSARTDPHLCDFLETHFLDEEVKLIKKMGDHLTNLHRGSRKRLDRNGGPEAGLGEYLFERLTLKHD
modifications: One monomer is given; it assembles into a 24-mer ferritin cage.
notes: It forms a ferritin-like cage (24-mer); also called FTL-AP1; not shown: His tag from the pET28a(+) vector (Ni-NTA purification, anti-His probe)
In assay [2], B4 displayed a Kd of 1.19 nM. In assay [1], the Kd amounted to 0.443 nM, the koff was 0.00125 s⁻¹ and the kon amounted to 1.22e+06 M⁻¹ s⁻¹.

B5: FTL-GP-AP1S: ferritin having AP1S inserted in GP cassette (human ferritin light chain, fourth loop) (designed binder)
chain: B4 chain with G155L, S156G, R157S, K158R, R159K, L160R, D161L, R162D, N163R, G164N
modifications: One monomer is given; it assembles into a 24-mer ferritin cage.
notes: as for B3
Molecule B5 returned a dissociation constant (Kd) in assay [2] of 4.29 nM. This counts as single-digit nanomolar.
